No end group written: not given here.
Target: T1, cell surface antigen PSMA on Lncap cell line with high PSMA expression (UniProt Q04609 1-750, limits assumed)
T1 construct: whole, on cells; Lncap is a prostate cancer cell line; also called Lncap cells
Experiment: immunofluorescence on Lncap cells (high PSMA expression), FITC marker
Procedure: Immunofluorescence detection was performed on KHL peptides in Lncap cell lines with high PSMA expression and PC3 cell lines with low PSMA expression, using FITC as the fluorescent marker.

T1 sequence (Q04609 whole entry): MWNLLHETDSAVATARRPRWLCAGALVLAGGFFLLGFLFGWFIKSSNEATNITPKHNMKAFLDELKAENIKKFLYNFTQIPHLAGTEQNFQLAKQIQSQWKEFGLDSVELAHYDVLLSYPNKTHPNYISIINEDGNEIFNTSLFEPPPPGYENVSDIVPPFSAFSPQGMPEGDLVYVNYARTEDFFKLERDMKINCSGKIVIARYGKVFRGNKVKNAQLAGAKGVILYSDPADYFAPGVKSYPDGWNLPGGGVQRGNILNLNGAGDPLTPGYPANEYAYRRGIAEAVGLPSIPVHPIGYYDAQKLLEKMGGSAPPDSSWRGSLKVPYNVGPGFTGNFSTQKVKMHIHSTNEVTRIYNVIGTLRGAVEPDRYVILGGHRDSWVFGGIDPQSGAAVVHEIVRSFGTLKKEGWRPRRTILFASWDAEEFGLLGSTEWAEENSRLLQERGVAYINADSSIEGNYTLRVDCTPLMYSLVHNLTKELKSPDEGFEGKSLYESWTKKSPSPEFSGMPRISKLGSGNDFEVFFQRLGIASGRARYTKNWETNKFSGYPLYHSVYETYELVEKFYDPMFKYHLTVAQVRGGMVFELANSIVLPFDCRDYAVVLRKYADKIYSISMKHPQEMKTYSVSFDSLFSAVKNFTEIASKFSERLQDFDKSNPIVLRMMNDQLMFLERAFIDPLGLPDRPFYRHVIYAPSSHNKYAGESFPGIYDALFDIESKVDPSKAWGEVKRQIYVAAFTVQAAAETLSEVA

binding result: binds
B1: KHL peptide with FITC as the fluorescent marker (peptide)
peptide: KHLHYHSSVRYG
modifications: also: FITC label, attachment site not given here
notes: also called KHL peptide conjugate

Reference: patent publication US20240076315A1 (ALLIFE MEDICINE ZHUHAI, published 2024)
